The record followed here is the supplement of paper PMC7877785.

± gives the uncertainty stated by the source.

This data set in a line: self-splicing fitness, log relative to wild type (ln ratio); higher = more splicing; Tetrahymena group I intron in knt gene, E. coli kanamycin selection, DiMSum; sequences stand for … in CUCUCU…GGAGGGAAAAGUUAUCAGGCAUGCACCUGGUAGCUAGUCUUUAAACCAAUAGAUUGCAUCGGUUUAAAAGGCAAGACCGUCAAAUUGCGGGAAAGGGGUCAACAGCCGUUCAGUACCAAGUCUCAGGGGAAACUUUGAGAUGGCCUUGCAAAGGGUAUGGUAAUAAGCUGACGGACAUGGUCCUAACCACGCAGCCAAGUCCUAAGUCAACAGAUCUUCUGUUGAUAUGGAUGCAGUUCACAGACUAAAUGUCGGUCGGGGAAGAUGUAUUCUUCUCAUAAGAUAUAGUCGGACCUCUCCUUAAUGGGAGCUAGCGGAUGAAGUGAUGCAACACUGGAGCCGCUGGGAACUAAUUUGUAUGCGAAAGUAUAUUGAUUAGUUUUGGAGUACUCGUGGUCG
The essentials:
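The eight P1ex-region nucleotides of an intron in the knt kanamycin-resistance gene on pET-22b(+) were all randomised and the library put into E. coli BL21(DE3). Six replicate transformations were grown overnight at 37°C or 30°C on LB agar with or without 25 μg/mL kanamycin, together with 100 μg/mL carbenicillin, 50 μM IPTG and 0.2% rhamnose. Colonies were pooled and amplicon-sequenced on an Illumina HiSeq 2500. Fitness from DiMSum is the error-weighted combination of wild-type-normalised replicate fold changes, kanamycin over none.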

Regarding AAGCAGCAAUAUUACGAUCC, the “self-splicing fitness (ln)” value reads like this: (30 °C) -1.73 ± 0.24; (37 °C) 0.0481 ± 0.24.
The corresponding values for UACUAGCAAUAUUACGUGCG are -0.684 ± 0.08 and -1.31 ± 0.1.
Regarding AAAGAGCAAUAUUACGUUAC, where the note is “30 °C”, the “self-splicing fitness (ln)” value was -2.94 ± 0.31.
Regarding UAAAAGCAAUAUUACGGUAU, the “self-splicing fitness (ln)” value was -3.74 ± 0.23 (30 °C) and -1.85 ± 0.21 (37 °C).
The corresponding values for CCUCAGCAAUAUUACGCGAG are -2.89 ± 0.1 and -1.76 ± 0.11.
In the case of AGCUAGCAAUAUUACGGUCA, the “self-splicing fitness (ln)” value was -0.312 ± 0.067 (30 °C) and 0.192 ± 0.083 (37 °C).
In the same order, the values of CGCUAGCAAUAUUACGGUAC are -3.35 ± 0.23 and -1.95 ± 0.22.
The corresponding values for CCUAAGCAAUAUUACGCAUA are -4.08 ± 0.28 and -2.77 ± 0.27.
The corresponding values for UCGUAGCAAUAUUACGUUAA are -1.59 ± 0.18 and -1.16 ± 0.17.
Consider CUACAGCAAUAUUACGGGAC, for which the “self-splicing fitness (ln)” value runs as follows: (30 °C) -2.98 ± 0.14; (37 °C) -2.06 ± 0.15.
The corresponding values for GGGAAGCAAUAUUACGCGAA are -0.913 ± 0.14 and -0.969 ± 0.2.
The corresponding values for CACUAGCAAUAUUACGAAGU are -2.82 ± 0.21 and -3.06 ± 0.29.
In the same order, the values of AGCGAGCAAUAUUACGUAAA are -2.53 ± 0.18 and -2.03 ± 0.31.
Regarding CCGUAGCAAUAUUACGUGCA, the “self-splicing fitness (ln)” value runs as follows: (30 °C) -3.06 ± 0.21; (37 °C) -2.88 ± 0.15.
As to GAGAAGCAAUAUUACGCUAA, the “self-splicing fitness (ln)” value was -2.47 ± 0.3 (30 °C) and -0.911 ± 0.24 (37 °C).
The corresponding values for UGAAAGCAAUAUUACGCGCU are -0.84 ± 0.11 and 0.297 ± 0.14.
The corresponding values for GGCGAGCAAUAUUACGCUAC are -1.38 ± 0.22 and 1.89 ± 0.48.
As to AGCAAGCAAUAUUACGACAA, the “self-splicing fitness (ln)” value was -1.54 ± 0.15 (30 °C) and -0.436 ± 0.14 (37 °C).
In the case of AGAGAGCAAUAUUACGUCAC, the “self-splicing fitness (ln)” value (37 °C) was -0.851 ± 0.42.
With UGCGAGCAAUAUUACGUGCA, the “self-splicing fitness (ln)” value runs as follows: (30 °C) -2.46 ± 0.2; (37 °C) -1.35 ± 0.21.
For CCGCAGCAAUAUUACGGGAU, the “self-splicing fitness (ln)” value reads like this: (30 °C) -4.16 ± 0.33; (37 °C) -1.82 ± 0.16.
The corresponding values for CCUUAGCAAUAUUACGUGCU are -3.4 ± 0.18 and -2.83 ± 0.31.
As for GGGUAGCAAUAUUACGCUGU, the “self-splicing fitness (ln)” value is -3.54 ± 0.38 (30 °C) and -2.32 ± 0.29 (37 °C).
Regarding AAAGAGCAAUAUUACGCUAU, the “self-splicing fitness (ln)” value (37 °C) is -2.46 ± 0.21.
UUUUAGCAAUAUUACGUAAA: the “self-splicing fitness (ln)” value by setting is: (30 °C) -1.52 ± 0.17; (37 °C) -0.431 ± 0.23.
On to UAAAAGCAAUAUUACGAUGG, for which the “self-splicing fitness (ln)” value (30 °C) was -0.953 ± 0.087 and the “self-splicing fitness (ln)” value (37 °C) was -0.592 ± 0.11.
As for UUCUAGCAAUAUUACGAGGU, the “self-splicing fitness (ln)” value reads like this: (30 °C) -3.27 ± 0.31; (37 °C) -1.53 ± 0.2.
In the case of CCGGAGCAAUAUUACGCAAA, under “37 °C”, the “self-splicing fitness (ln)” value was -2.55 ± 0.33.
Consider ACGCAGCAAUAUUACGUCGC, for which the “self-splicing fitness (ln)” value reads like this: (30 °C) -1.16 ± 0.12; (37 °C) -2.45 ± 0.22.
Turning to UCCUAGCAAUAUUACGGCCA, the “self-splicing fitness (ln)” value reads like this: (30 °C) -3.17 ± 0.15; (37 °C) -1.74 ± 0.11.
For the sequence CCUUAGCAAUAUUACGAGCC, under “30 °C”, the “self-splicing fitness (ln)” value is -3.38 ± 0.34.
Take CAAAAGCAAUAUUACGCCGC: under “37 °C”, the “self-splicing fitness (ln)” value is -1.32 ± 0.48.
Consider UAUUAGCAAUAUUACGUCGA, for which the “self-splicing fitness (ln)” value is -1.27 ± 0.16 (30 °C) and -0.984 ± 0.17 (37 °C).
In the same order, the values of UGCUAGCAAUAUUACGAACG are -0.171 ± 0.097 and 0.803 ± 0.12.
In the same order, the values of GUUGAGCAAUAUUACGAAUU are -3.8 ± 0.34 and -1.24 ± 0.34.
In the same order, the values of UUUUAGCAAUAUUACGUCAG are -3.93 ± 0.47 and -0.297 ± 0.27.
On to AUAGAGCAAUAUUACGGGGA, for which, under “37 °C”, the “self-splicing fitness (ln)” value was -2.44 ± 0.28.
On to CGCCAGCAAUAUUACGCGAG, for which the “self-splicing fitness (ln)” value was -4.1 ± 0.18 (30 °C) and -2.97 ± 0.25 (37 °C).
The corresponding values for AAUGAGCAAUAUUACGUAGA are -2.46 ± 0.24 and -2.56 ± 0.27.
In the same order, the values of CAAAAGCAAUAUUACGUUAU are -3.96 ± 0.13 and -2.5 ± 0.12.
In the same order, the values of GUAUAGCAAUAUUACGCACA are -1.11 ± 0.13 and 0.279 ± 0.16.
GGUAAGCAAUAUUACGGGUU: the “self-splicing fitness (ln)” value reads like this: (30 °C) -1.82 ± 0.076; (37 °C) -1.69 ± 0.11.
In the same order, the values of UUGUAGCAAUAUUACGCAGG are -1.6 ± 0.24 and 0.28 ± 0.17.
The corresponding values for UGCGAGCAAUAUUACGAAGG are -1.75 ± 0.2 and -1.91 ± 0.44.
With CUCAAGCAAUAUUACGAACG, the “self-splicing fitness (ln)” value (30 °C) was -1.54 ± 0.089 and the “self-splicing fitness (ln)” value (37 °C) is -0.932 ± 0.12.
The corresponding values for CUUGAGCAAUAUUACGUGAA are -3.07 ± 0.2 and -2.36 ± 0.3.
The corresponding values for GAUCAGCAAUAUUACGACAA are -0.267 ± 0.081 and -0.396 ± 0.089.
In the same order, the values of AUGCAGCAAUAUUACGGACU are -0.194 ± 0.073 and 0.429 ± 0.094.
GUAUAGCAAUAUUACGUUUU: the “self-splicing fitness (ln)” value is -1.97 ± 0.2 (30 °C) and -2.37 ± 0.28 (37 °C).
The corresponding values for ACUUAGCAAUAUUACGCAGA are -2.32 ± 0.26 and -0.913 ± 0.15.
The corresponding values for UUAUAGCAAUAUUACGUAGA are -1.34 ± 0.17 and -0.707 ± 0.17.
UUUAAGCAAUAUUACGGAGA: the “self-splicing fitness (ln)” value is -2.18 ± 0.21 (30 °C) and -0.727 ± 0.17 (37 °C).
As for GGACAGCAAUAUUACGUCCC, the “self-splicing fitness (ln)” value (30 °C) was -3.31 ± 0.4.
In the case of UACCAGCAAUAUUACGCCGG, the “self-splicing fitness (ln)” value (30 °C) was -3.31 ± 0.22 and the “self-splicing fitness (ln)” value (37 °C) was -3.14 ± 0.37.
The corresponding values for UUGGAGCAAUAUUACGGCAA are -0.805 ± 0.23 and -0.671 ± 0.32.
In the same order, the values of CCAGAGCAAUAUUACGCAAA are -2.79 ± 0.48 and -1.57 ± 0.33.
In the same order, the values of CUAGAGCAAUAUUACGGAGG are -1.49 ± 0.13 and -1.98 ± 0.16.
With CUCUAGCAAUAUUACGUGCU, the “self-splicing fitness (ln)” value by setting is: (30 °C) -2.48 ± 0.3; (37 °C) -2.38 ± 0.27.
The corresponding values for AGCAAGCAAUAUUACGAAGU are -3.42 ± 0.27 and -1.58 ± 0.25.
In the case of CGUGAGCAAUAUUACGAGAA, the “self-splicing fitness (ln)” value (30 °C) is -3.1 ± 0.34 and the “self-splicing fitness (ln)” value (37 °C) is -2.08 ± 0.24.
Regarding CGCCAGCAAUAUUACGUUCC, the “self-splicing fitness (ln)” value is, setting by setting: (30 °C) -2.71 ± 0.16; (37 °C) -1.67 ± 0.37.
As to GUAAAGCAAUAUUACGCAUU, the “self-splicing fitness (ln)” value is, setting by setting: (30 °C) -1.76 ± 0.099; (37 °C) -0.597 ± 0.11.
With GAAAAGCAAUAUUACGGACG, the “self-splicing fitness (ln)” value was -1.05 ± 0.092 (30 °C) and -0.401 ± 0.1 (37 °C).
As for CCAUAGCAAUAUUACGGGUA, the “self-splicing fitness (ln)” value by setting is: (30 °C) -3.25 ± 0.27; (37 °C) -2.87 ± 0.27.
In the case of UAUAAGCAAUAUUACGAGGA, the “self-splicing fitness (ln)” value (30 °C) was -2.44 ± 0.42.
As to ACCGAGCAAUAUUACGUAGU, the “self-splicing fitness (ln)” value reads like this: (30 °C) -3.62 ± 0.18; (37 °C) -2.26 ± 0.15.
The corresponding values for GUUCAGCAAUAUUACGUUGC are -3.13 ± 0.12 and -1.7 ± 0.11.
In the same order, the values of GGAAAGCAAUAUUACGAGUA are -2.38 ± 0.22 and -0.9 ± 0.19.
The corresponding values for AAUCAGCAAUAUUACGUCAU are 0.166 ± 0.064 and 0.337 ± 0.077.
Turning to CGGUAGCAAUAUUACGCCUA, the “self-splicing fitness (ln)” value (30 °C) was -0.535 ± 0.14 and the “self-splicing fitness (ln)” value (37 °C) is -0.215 ± 0.11.
The corresponding values for CUUUAGCAAUAUUACGUAUC are -3.56 ± 0.35 and -3.21 ± 0.4.
As to CGGAAGCAAUAUUACGGAAA, the “self-splicing fitness (ln)” value by setting is: (30 °C) -1.12 ± 0.21; (37 °C) -2.23 ± 0.29.
The corresponding values for CUCAAGCAAUAUUACGAGCU are -4.33 ± 0.3 and -4.08 ± 0.39.
In the same order, the values of GGGAAGCAAUAUUACGAAAC are -0.695 ± 0.14 and -0.469 ± 0.17.
CCGCAGCAAUAUUACGUCCC: the “self-splicing fitness (ln)” value (37 °C) is -2.65 ± 0.49.
Consider UCGUAGCAAUAUUACGAUAU, for which the “self-splicing fitness (ln)” value is, setting by setting: (30 °C) -3.38 ± 0.31; (37 °C) -1.85 ± 0.37.
In the same order, the values of ACCUAGCAAUAUUACGGCUA are -2.93 ± 0.13 and -2.65 ± 0.17.
As to GCUGAGCAAUAUUACGGAGU, the “self-splicing fitness (ln)” value (37 °C) is -2.38 ± 0.31.
